Reference: patent US20110053865A1 (published 2011)

What was measured:
Test in all cases: Biacore; eBiosc hIL23
3C7 = molecular target: 3C7
3H5 = molecular target: 3H5
3A7 = molecular target: 3A7
3A11 = molecular target: 3A11
1G8 = molecular target: 1G8
4F3 = molecular target: 4F3
3G9 = molecular target: 3G9
3E1 = molecular target: 3E1
3A10 = molecular target: 3A10
3D4 = molecular target: 3D4
124G2 = molecular target: 124G2
124D2 = molecular target: 124D2
124H2 = molecular target: 124H2
119H1 = molecular target: 119H1
12A11 = molecular target: 12A11
12D2 = molecular target: 12D2
81D1 = molecular target: 81D1
119B3 = molecular target: 119B3
123F1 = molecular target: 123F1
124H5 = molecular target: 124H5
121C7 = molecular target: 121C7
119C3 = molecular target: 119C3
119C9 = molecular target: 119C9

B1: eBiosc hIL23 (ligand)
chain 1: RAVPGGSSPAWTQCQQLSQKLCTLAWSAHPLVGHMDLREEGDEETTNDVPHIQCGDGCDPQGLRDNSQFCLQRIHQGLIFYEKLLGSDIFTGEPSLLPDSPVGQLHASLLGLSQLLQPEGHHWETQQIPSLSPSQPWQRLLLRFKILRSLQAFVAVAARVFAHGAATLSP
chain 2: IWELKKDVYVVELDWYPDAPGEMVVLTCDTPEEDGITWTLDQSSEVLGSGKTLTIQVKEFGDAGQYTCHKGGEVLSHSLLLLHKKEDGIWSTDILKDQKEPKNKTFLRCEAKNYSGRFTCWWLTTISTDLTFSVKSSRGSSDPQGVTCGAATLSAERVRGDNKEYEYSVECQEDSACPAAEESLPIEVMVDAVHKLKYENYTSSFFIRDIIKPDPPKNLQLKPLKNSRQVEVSWEYPDTWSTPHSYFSLTFCVQVQGKSKREKKDRVFTDKTSATVICRKNASISVRAQDRYYSSSWSEWASVPCS
B1 gave a koff (3C7) of 0.0102 s⁻¹, a koff (3H5) of 0.00333 s⁻¹ and a koff (3A7) of 0.00507 s⁻¹. The koff (3A11) was 0.00513 s⁻¹, the koff (1G8) was 0.00223 s⁻¹ and the koff (4F3) was 0.00208 s⁻¹. For the same binder, the koff (3G9) was 0.00672 s⁻¹, the koff (3E1) was 0.00866 s⁻¹ and the koff (3A10) was 0.00286 s⁻¹. The koff (3D4) was 0.0062 s⁻¹, the koff (124G2) was 9.28e-05 s⁻¹ and the koff (124D2) was 0.000103 s⁻¹. For the same binder, the koff (124H2) was 5.88e-05 s⁻¹, the koff (119H1) was 0.0106 s⁻¹ and the koff (12A11) was 0.000134 s⁻¹. The koff (12D2) was 0.000125 s⁻¹, the koff (81D1) was 0.0114 s⁻¹ and the koff (119B3) was 0.00015 s⁻¹. The koff (123F1) was 0.000377 s⁻¹, the koff (124H5) was 3.54e-05 s⁻¹ and the koff (121C7) was 0.000112 s⁻¹. For the same binder, the koff (119C3) was 0.0334 s⁻¹ and the koff (119C9) was 0.0012 s⁻¹.
